Laboratory results taken from patent publication US20180155406A1 (Sanofi, published 2018).
Numbered stars: 1 amine (or outer) side, 2 acyl side, 3 side chain; on linkers, the order of the positions; unused ones are H or OH. Square brackets hold non-standard residues; d marks the D form. Side chains are listed from the residue outwards. Ends that are not written are not given here. * marks the point of attachment. γGlu = O=C(O)[C@H](CCC(=O)[*:2])N[*:1]; Stearoyl = CCCCCCCCCCCCCCCCCC(=O)*; Palmitoyl = CCCCCCCCCCCCCCCC(=O)*; gAAA = not defined here; AEEA = NCCOCCOCC(=O)O; Aib = CC(C)(N)C(=O)O

B1: SEQ ID NO: 20 (peptide)
peptide: H[Aib]HGTFTSDLSKLK([γGlu-Palmitoyl])EEQRQKEFIEWLKAGGPPS[Aib]KPPPK-NH2
modifications: N-terminus assumed
SMILES: CCCCCCCCCCCCCCCC(=O)N[C@@H](CCC(=O)NCCCC[C@H](NC(=O)[C@H](CC(C)C)NC(=O)[C@H](CCCCN)NC(=O)[C@H](CO)NC(=O)[C@H](CC(C)C)NC(=O)[C@H](CC(=O)O)NC(=O)[C@H](CO)NC(=O)[C@@H](NC(=O)[C@H](Cc1ccccc1)NC(=O)[C@@H](NC(=O)CNC(=O)[C@H](Cc1c[nH]cn1)NC(=O)C(C)(C)NC(=O)[C@@H](N)Cc1c[nH]cn1)[C@@H](C)O)[C@@H](C)O)C(=O)N[C@@H](CCC(=O)O)C(=O)N[C@@H](CCC(=O)O)C(=O)N[C@@H](CCC(N)=O)C(=O)N[C@@H](CCCNC(=N)N)C(=O)N[C@@H](CCC(N)=O)C(=O)N[C@@H](CCCCN)C(=O)N[C@@H](CCC(=O)O)C(=O)N[C@@H](Cc1ccccc1)C(=O)N[C@H](C(=O)N[C@@H](CCC(=O)O)C(=O)N[C@@H](Cc1c[nH]c2ccccc12)C(=O)N[C@@H](CC(C)C)C(=O)N[C@@H](CCCCN)C(=O)N[C@@H](C)C(=O)NCC(=O)NCC(=O)N1CCC[C@H]1C(=O)N1CCC[C@H]1C(=O)N[C@@H](CO)C(=O)NC(C)(C)C(=O)N[C@@H](CCCCN)C(=O)N1CCC[C@H]1C(=O)N1CCC[C@H]1C(=O)N1CCC[C@H]1C(=O)N[C@@H](CCCCN)C(N)=O)[C@@H](C)CC)C(=O)O
B2: SEQ ID NO: 6 (peptide)
peptide: H[Aib]HGTFTSDLSKLK([γGlu-γGlu-Palmitoyl])EEQRQKEFIEWLKAGGHPS[Aib]KPPPK-NH2
modifications: N-terminus assumed
SMILES: CCCCCCCCCCCCCCCC(=O)N[C@@H](CCC(=O)N[C@@H](CCC(=O)NCCCC[C@H](NC(=O)[C@H](CC(C)C)NC(=O)[C@H](CCCCN)NC(=O)[C@H](CO)NC(=O)[C@H](CC(C)C)NC(=O)[C@H](CC(=O)O)NC(=O)[C@H](CO)NC(=O)[C@@H](NC(=O)[C@H](Cc1ccccc1)NC(=O)[C@@H](NC(=O)CNC(=O)[C@H](Cc1c[nH]cn1)NC(=O)C(C)(C)NC(=O)[C@@H](N)Cc1c[nH]cn1)[C@@H](C)O)[C@@H](C)O)C(=O)N[C@@H](CCC(=O)O)C(=O)N[C@@H](CCC(=O)O)C(=O)N[C@@H](CCC(N)=O)C(=O)N[C@@H](CCCNC(=N)N)C(=O)N[C@@H](CCC(N)=O)C(=O)N[C@@H](CCCCN)C(=O)N[C@@H](CCC(=O)O)C(=O)N[C@@H](Cc1ccccc1)C(=O)N[C@H](C(=O)N[C@@H](CCC(=O)O)C(=O)N[C@@H](Cc1c[nH]c2ccccc12)C(=O)N[C@@H](CC(C)C)C(=O)N[C@@H](CCCCN)C(=O)N[C@@H](C)C(=O)NCC(=O)NCC(=O)N[C@@H](Cc1c[nH]cn1)C(=O)N1CCC[C@H]1C(=O)N[C@@H](CO)C(=O)NC(C)(C)C(=O)N[C@@H](CCCCN)C(=O)N1CCC[C@H]1C(=O)N1CCC[C@H]1C(=O)N1CCC[C@H]1C(=O)N[C@@H](CCCCN)C(N)=O)[C@@H](C)CC)C(=O)O)C(=O)O
B3: SEQ ID NO: 21 (peptide)
peptide: H[Aib]HGTFTSDLSKLK([γGlu-Stearoyl])EEQRQKEFIEWLKAGGPPS[Aib]KPPPK-NH2
modifications: N-terminus assumed
SMILES: CCCCCCCCCCCCCCCCCC(=O)N[C@@H](CCC(=O)NCCCC[C@H](NC(=O)[C@H](CC(C)C)NC(=O)[C@H](CCCCN)NC(=O)[C@H](CO)NC(=O)[C@H](CC(C)C)NC(=O)[C@H](CC(=O)O)NC(=O)[C@H](CO)NC(=O)[C@@H](NC(=O)[C@H](Cc1ccccc1)NC(=O)[C@@H](NC(=O)CNC(=O)[C@H](Cc1c[nH]cn1)NC(=O)C(C)(C)NC(=O)[C@@H](N)Cc1c[nH]cn1)[C@@H](C)O)[C@@H](C)O)C(=O)N[C@@H](CCC(=O)O)C(=O)N[C@@H](CCC(=O)O)C(=O)N[C@@H](CCC(N)=O)C(=O)N[C@@H](CCCNC(=N)N)C(=O)N[C@@H](CCC(N)=O)C(=O)N[C@@H](CCCCN)C(=O)N[C@@H](CCC(=O)O)C(=O)N[C@@H](Cc1ccccc1)C(=O)N[C@H](C(=O)N[C@@H](CCC(=O)O)C(=O)N[C@@H](Cc1c[nH]c2ccccc12)C(=O)N[C@@H](CC(C)C)C(=O)N[C@@H](CCCCN)C(=O)N[C@@H](C)C(=O)NCC(=O)NCC(=O)N1CCC[C@H]1C(=O)N1CCC[C@H]1C(=O)N[C@@H](CO)C(=O)NC(C)(C)C(=O)N[C@@H](CCCCN)C(=O)N1CCC[C@H]1C(=O)N1CCC[C@H]1C(=O)N1CCC[C@H]1C(=O)N[C@@H](CCCCN)C(N)=O)[C@@H](C)CC)C(=O)O
B4: SEQ ID NO: 22 (peptide)
peptide: H[Aib]HGTFTSDLSKLK([γGlu-AEEA-gAAA-Palmitoyl])EEQRQKEFIEWLKAGGHPS[Aib]KPPPK-NH2
modifications: reading uncertain
B5: SEQ ID NO: 23 (peptide)
peptide: H[Aib]HGTFTSDLSKLK([γGlu-AEEA-gAAA-Palmitoyl])EEQRQKEFIEWLKA[dA]GHPS[Aib]KPPPK-NH2
modifications: reading uncertain
B6: SEQ ID NO: 28 (peptide)
peptide: HXQGTFTSDLSKQKDEQRAKEFIEWLKAGGPSSGAPPPS
modifications: Aib at 2; Lys14 side chain acylated with gGlu-Stea; C-terminal amide

Columns and labels:
Experiment in all cases: cell-based or functional assay
[1] = molecular target: human GLP-1 receptor (human) (UniProt P43220)
Sequence of human GLP-1 receptor (human) (P43220 24-463): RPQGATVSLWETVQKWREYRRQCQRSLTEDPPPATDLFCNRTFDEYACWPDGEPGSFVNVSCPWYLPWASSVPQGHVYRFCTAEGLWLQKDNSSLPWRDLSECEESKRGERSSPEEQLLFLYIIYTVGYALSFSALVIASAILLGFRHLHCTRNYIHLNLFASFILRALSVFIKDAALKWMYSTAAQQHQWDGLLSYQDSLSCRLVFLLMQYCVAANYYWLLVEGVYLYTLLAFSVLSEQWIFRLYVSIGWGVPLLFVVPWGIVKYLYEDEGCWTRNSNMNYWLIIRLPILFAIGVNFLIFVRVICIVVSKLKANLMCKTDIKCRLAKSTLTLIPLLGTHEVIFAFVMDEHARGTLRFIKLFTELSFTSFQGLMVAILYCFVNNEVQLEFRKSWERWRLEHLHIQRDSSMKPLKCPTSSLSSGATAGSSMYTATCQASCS

[2] = molecular target: human glucagon receptor (human) (UniProt P47871)
Sequence of human glucagon receptor (human) (P47871 26-477): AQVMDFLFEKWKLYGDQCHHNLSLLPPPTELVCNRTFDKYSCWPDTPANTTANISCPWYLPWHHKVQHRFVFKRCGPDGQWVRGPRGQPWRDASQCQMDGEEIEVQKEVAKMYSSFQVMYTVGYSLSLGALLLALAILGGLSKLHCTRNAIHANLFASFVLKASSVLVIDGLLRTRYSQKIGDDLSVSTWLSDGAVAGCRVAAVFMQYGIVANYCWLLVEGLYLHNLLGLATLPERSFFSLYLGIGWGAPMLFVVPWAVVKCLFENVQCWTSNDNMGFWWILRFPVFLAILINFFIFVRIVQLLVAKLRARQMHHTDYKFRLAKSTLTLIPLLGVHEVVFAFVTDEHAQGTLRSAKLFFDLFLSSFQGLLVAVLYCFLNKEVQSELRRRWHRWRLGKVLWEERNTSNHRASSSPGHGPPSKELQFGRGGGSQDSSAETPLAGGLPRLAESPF

[3] = molecular target: human GLP-1 receptor (human, UniProt P43220 24-463)
[4] = molecular target: T1, human glucagon receptor (human, UniProt P47871 26-477)
T1 sequence (P47871 26-477): as above

[5] = molecular target: T2, human GIP receptor (human, UniProt P48546 22-466)
T2 sequence (looked up): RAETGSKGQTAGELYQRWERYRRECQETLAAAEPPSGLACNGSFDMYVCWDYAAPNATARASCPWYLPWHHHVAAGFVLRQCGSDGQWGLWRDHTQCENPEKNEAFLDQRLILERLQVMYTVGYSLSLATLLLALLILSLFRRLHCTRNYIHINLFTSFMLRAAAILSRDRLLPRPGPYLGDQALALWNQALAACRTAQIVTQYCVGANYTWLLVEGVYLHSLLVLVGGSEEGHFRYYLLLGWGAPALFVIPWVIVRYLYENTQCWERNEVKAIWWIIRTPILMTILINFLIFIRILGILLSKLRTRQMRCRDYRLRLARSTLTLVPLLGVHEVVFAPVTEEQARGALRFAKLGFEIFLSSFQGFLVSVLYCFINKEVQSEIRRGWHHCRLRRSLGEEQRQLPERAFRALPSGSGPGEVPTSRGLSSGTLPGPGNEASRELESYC

[6] = molecular target: T1, human glucagon receptor; remark: listed apart in the source

Row | Molecule | EC50 hGLP-1 R [pM] (cAMP formation) [1] | EC50 hGlucagon R [pM] (cAMP formation) [2] | EC50 hGLP-1R (cAMP formation) [3] | EC50 hGlucagon R (cAMP formation) [4] | EC50 hGIP R (cAMP formation) [5] | EC50 hGlucagon-R [6]
1 | exendin-4 (peptide) | 0.4 pM | > 1e+07 pM |  |  |  | 
2 | B1 |  |  | 4.8 pM | 4.2 pM | 1.9 pM | 
3 | B2 |  |  | 1.4 pM | 2.3 pM | 2.1 pM | 
4 | B3 |  |  | 3.4 pM | 1.9 pM | 2.6 pM | 
5 | B4 |  |  | 1 pM | 5.9 pM | 1.1 pM | 
6 | B5 |  |  | 1.4 pM | 6.8 pM | 1.5 pM | 
7 | B6 |  |  |  |  |  | 1.9 pM
